Data as given in publication PMC10288270, “Study on the Role of an Erythrocyte Membrane‐Coated Nanotheranostic System in Targeted Immune Regulation of Alzheimer's Disease”.

Molecular target: Amyloid beta 1-42 (UniProt P05067 672-713)
Assay: fluorescence recovery (FAM/BHQ1 dequenching); Abeta 0-160 ug/mL, 2 h; TBS: 1 mM Tris-HCl, 100 mM NaCl, 4 mM MgCl2, 5 mM KCl, pH 7.4; 37 C, 2 h; aptamer refolded from 95 C; 2 uL of 10 uM aptamer
Settings: protein: commercial; label: 5' 6-FAM, 3' BHQ1 as printed in Methods (Results text states FAM 3', BHQ 5'); hairpin (stated design)

Chain of Amyloid beta 1-42 (P05067 672-713): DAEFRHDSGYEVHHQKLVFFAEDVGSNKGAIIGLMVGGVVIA

B1: Abeta aptamer (AAP) (structured_DNA)
DNA: TGGGGGGCGGACGATAGGGGCCCCCCGGTAGGATGGACG
B1: binds.
